Experimental data as given in article PMC6433461.

Target: ParB2^S68C-AlexaFluor488 (B. subtilis) (UniProt P26497)

B1: ParB2^S68C-AlexaFluor488 (natural protein)
chain: MAKGLGKGINALFNQVDLSEETVEEIKIADLRPNPYQPRKHFDDEALAELKESVLQHGILQPLIVRKCLKGYDIVAGERRFRAAKLAGLDTVPAIVRELSEALMREIALLENLQREDLSPLEEAQAYDSLLKHLDLTQEQLAKRLGKSRPHIANHLRLLTLPENIQQLIAEGTLSMGHGRTLLGLKNKNKLEPLVQKVIAEQLNVRQLEQLIQQLNQNVPRETKKKEPVKDAVLKERESYLQNYFGTTVNIKRQKKKGKIEIEFFSNEDLDRILELLSERES
modifications: Alexa Fluor 488 C5 maleimide coupled to the cysteine of S68C; approximate efficiency of 2 dyes per ParB monomer as printed
**Q.** Which percentage of single DNA molecules condensed by 250 nM ParB^AF alone at permissive forces, Mg2+ buffer, combined lateral MT-TIRF does the source give for B1 here?
**A.** 83%
